One block for each binder: values may come before it.
Legend:
mouse GRP78 = biological target: T1, mouse GRP78 (mouse, UniProt P20029 20-655); assay: immunoblot of MEF lysates; band absent after deletion of Grp78
T1 construct: Denatured protein on an immunoblot; also called GRP78 protein band in mouse embryo fibroblast (MEF) lysates

HSP70 = biological target: T2, HSP70 (UniProt P0DMV8 2-641); assay: Western blot of MCF7 whole cell lysates
T2 construct: also called GRP78's closest paralogue

human GRP78 = biological target: T3, human GRP78 (human, UniProt P11021 19-654); assay: Scatchard assay
T3 construct: also called BiP/HSPA5; antigen

[1] = biological target: T4, Flag tagged GRP78 (without KDEL) (human, UniProt P11021 19-650, surface biotinylated with Sulfo-NHS-LC-Biotin); assay: surface biotinylation, avidin purification, anti-Flag immunoprecipitation, Western blot (293T cells)
T4 construct: also called surface GRP78 (overexpressed); not shown: Flag tag

[2] = biological target: T5, GRP78-His (human GRP78 amino acids 1-650, without KDEL motif, hexahistidine tag on C-terminus) (human, UniProt P11021 19-650); assay: competition ELISA on GRP78-His; dilution series of unlabelled antibody against a fixed concentration of biotinylated murine MAb159 [panel A]
T5 construct: also called GRP78-His polypeptide

binding result (mouse GRP78): binds
Kd (human GRP78): 1.7 nM
B1: MAb159 (murine monoclonal antibody) (antibody, V domains shown)
VH: QAQLQQPGAELVKPGASVRLSCKASGYTFTSYWMHWVKQRPGQGLEWIGEINPGNGRTNYNEKFKRKATLTVDKSSSTAYMQLNSLTSEDSAVYYCATLYYYDGTYDYWGQGTTLTVSS
VL: DIVMTQSHKFMSTSVGDRVSVTCKASQNVGTDVAWYQQKPGQSPKALIYWASNRFTGVPDRFTGSGSGTDFTLTINNVQSEDLVDYFCQQYSSSPWTFGGGTKLEIK
notes: Whole murine monoclonal antibody from a hybridoma, purified on protein G; also called murine MAb159; parental murine antibody
binding result (HSP70): no binding (tested: 1 µg/ml primary antibody)

binding result [1]: no binding
B2: ERK1 (enzyme, UniProt P27361 2-379, looked up)
chain: AAAAAQGGGGGEPRRTEGVGPGVPGEVEMVKGQPFDVGPRYTQLQYIGEGAYGMVSSAYDHVRKTRVAIKKISPFEHQTYCQRTLREIQILLRFRHENVIGIRDILRASTLEAMRDVYIVQDLMETDLYKLLKSQQLSNDHICYFLYQILRGLKYIHSANVLHRDLKPSNLLINTTCDLKICDFGLARIADPEHDHTGFLTEYVATRWYRAPEIMLNSKGYTKSIDIWSVGCILAEMLSNRPIFPGKHYLDQLNHILGILGSPSQEDLNCIINMKARNYLQSLPSKTKVAWAKLFPKSDSKALDLLDRMLTFNPNKRITVEEALAHPYLEQYYDPTDEPVAEEPFTFAMELDDLPKERLKELIFQETARFQPGVLEAP
notes: Printed only as ERK1/2; also called ERK1/2; Erk1/2

binding result [2]: binds
B3: humanized MAb159 (antibody, V domains shown)
VH: QAQLVQSGAEVKKPGASVKVSCKASGYTFTSYWMHWVRQAPGQGLEWIGEINPGNGRTNYNEKFKRRVTITVDKSASTAYMELSSLRSEDTAVYYCATLYYYDGTYDYWGQGTTVTVSS
VL: DIVMTQSPSFLSASVGDRVTITCKASQNVGTDVAWYQQKPGKAPKALIYWASNRFTGVPDRFTGSGSGTDFTLTISSLQSEDVADYFCQQYSSSPWTFGGGTKVEIK
notes: It carries a human Fc (detected with a human Fc specific antibody)

— patent US20160185853A1 (UNIVERSITY OF SOUTHERN CALIFORNIA, published 2016)
